Experimental data from article PMC8864220, “Transcriptional Regulation of the Creatine Utilization Genes of Corynebacterium glutamicum ATCC 14067 by AmtR, a Central Nitrogen Regulator”.

T1: AmtR (Corynebacterium glutamicum ATCC 14067, UniProt H7C699 1-222)
T1 sequence: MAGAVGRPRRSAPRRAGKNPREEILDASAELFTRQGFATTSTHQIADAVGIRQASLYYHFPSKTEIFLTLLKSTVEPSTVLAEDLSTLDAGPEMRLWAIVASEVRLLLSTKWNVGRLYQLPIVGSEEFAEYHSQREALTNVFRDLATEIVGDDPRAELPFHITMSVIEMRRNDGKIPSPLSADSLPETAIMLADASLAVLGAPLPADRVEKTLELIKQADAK

B1: PhyuB-1 (dsDNA)
DNA 1: TTGAAAACTTTTCGATAGAGCAATAGAAATTTCCCAGCCCAA
DNA 2: TTGGGCTGGGAAATTTCTATTGCTCTATCGAAAAGTTTTCAA
B2: PcreT-2 (oligos PcrnT-2-S/A) (dsDNA)
DNA 1: ATTTATATTCTTTTCTATCACCCTATAGAAACATATTGGACG
DNA 2: CGTCCAATATGTTTCTATAGGGTGATAGAAAAGAATATAAAT
B3: PhyuB-2 (dsDNA)
DNA 1: CCCGGGGTGATTTTCTATCGTGTGATAGGTTTAATTCTGTTG
DNA 2: CAACAGAATTAAACCTATCACACGATAGAAAATCACCCCGGG
B4: PcreT-1 (oligos PcrnT-1-S/A) (dsDNA)
DNA 1: ACCACCAATGAAACCTATCGGTCTATAGAAATTGACATTGCT
DNA 2: AGCAATGTCAATTTCTATAGACCGATAGGTTTCATTGGTGGT

target: T1, AmtR; assay: EMSA; EMSA, 20 ul: 10 mM Tris pH 7.0, 50 mM KCl, 1 mM DTT, 5 mM MgCl (so in the source), 10 mM EDTA, 2.5% glycerol, 0.05% NP-40, 50 ng/ul poly(dIdC); 100 ng DNA, 0-0.8 ug AmtR; 6% native PAGE, 0.5x TBE, GelRed; temperature not stated; settings: protein: recombinant; tags: C-terminal His6; chain copies: 2; blunt

Row | Binder | binding result
1 | B1 | binds
2 | B2 | binds
3 | B3 | binds
4 | B4 | binds
